How the values were obtained:
Assay in all cases: IF colocalization (JACoP) of VT680 phage with marker, CP mouse pancreas sections
[1] = target: cytokeratin 7 (CK-7) (mouse) (UniProt Q9DCV7)
[2] = target: carboxypeptidase A1 (CPA1) (mouse) (UniProt Q7TPZ8)
F4/80 (mouse) = F4/80 (mouse) (UniProt Q61549)
collagen IIIa (mouse) = collagen IIIa (mouse) (UniProt P08121)
CD31 (mouse) = CD31 (mouse) (UniProt Q08481)
Sequence of UniProt Q08481 (Q08481 18-727): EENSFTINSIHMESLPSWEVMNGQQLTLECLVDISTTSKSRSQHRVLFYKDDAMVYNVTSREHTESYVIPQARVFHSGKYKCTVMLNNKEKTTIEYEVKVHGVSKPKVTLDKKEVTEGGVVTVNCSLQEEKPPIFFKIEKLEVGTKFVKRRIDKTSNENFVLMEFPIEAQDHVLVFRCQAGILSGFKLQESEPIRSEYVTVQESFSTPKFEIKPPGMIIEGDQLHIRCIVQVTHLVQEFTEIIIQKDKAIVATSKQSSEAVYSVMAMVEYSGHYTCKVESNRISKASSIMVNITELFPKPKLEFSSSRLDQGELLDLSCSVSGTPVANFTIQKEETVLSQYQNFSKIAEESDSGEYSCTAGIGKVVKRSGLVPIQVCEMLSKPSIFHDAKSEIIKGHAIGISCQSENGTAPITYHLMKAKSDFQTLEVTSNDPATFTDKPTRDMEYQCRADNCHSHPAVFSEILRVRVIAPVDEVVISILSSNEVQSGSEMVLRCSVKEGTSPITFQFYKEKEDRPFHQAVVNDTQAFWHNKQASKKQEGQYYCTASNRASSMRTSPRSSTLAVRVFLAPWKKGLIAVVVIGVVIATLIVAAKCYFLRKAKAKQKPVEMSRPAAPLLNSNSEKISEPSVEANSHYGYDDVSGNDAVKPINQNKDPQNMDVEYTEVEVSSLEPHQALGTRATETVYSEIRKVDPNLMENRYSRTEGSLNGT

Sequence of UniProt Q9DCV7 (Q9DCV7 2-457): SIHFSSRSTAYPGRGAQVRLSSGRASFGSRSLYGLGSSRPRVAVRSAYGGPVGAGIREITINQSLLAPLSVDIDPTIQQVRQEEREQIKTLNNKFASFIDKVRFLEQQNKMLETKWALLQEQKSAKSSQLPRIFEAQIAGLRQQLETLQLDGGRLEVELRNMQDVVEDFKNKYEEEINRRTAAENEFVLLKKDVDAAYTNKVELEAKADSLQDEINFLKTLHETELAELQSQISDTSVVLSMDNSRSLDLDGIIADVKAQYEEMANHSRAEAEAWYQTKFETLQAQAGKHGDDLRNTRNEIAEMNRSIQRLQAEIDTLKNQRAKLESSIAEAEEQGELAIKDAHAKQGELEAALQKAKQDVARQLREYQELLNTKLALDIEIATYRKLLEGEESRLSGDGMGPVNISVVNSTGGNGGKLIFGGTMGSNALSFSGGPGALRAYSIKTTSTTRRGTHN
Sequence of UniProt Q61549 (Q61549 28-931): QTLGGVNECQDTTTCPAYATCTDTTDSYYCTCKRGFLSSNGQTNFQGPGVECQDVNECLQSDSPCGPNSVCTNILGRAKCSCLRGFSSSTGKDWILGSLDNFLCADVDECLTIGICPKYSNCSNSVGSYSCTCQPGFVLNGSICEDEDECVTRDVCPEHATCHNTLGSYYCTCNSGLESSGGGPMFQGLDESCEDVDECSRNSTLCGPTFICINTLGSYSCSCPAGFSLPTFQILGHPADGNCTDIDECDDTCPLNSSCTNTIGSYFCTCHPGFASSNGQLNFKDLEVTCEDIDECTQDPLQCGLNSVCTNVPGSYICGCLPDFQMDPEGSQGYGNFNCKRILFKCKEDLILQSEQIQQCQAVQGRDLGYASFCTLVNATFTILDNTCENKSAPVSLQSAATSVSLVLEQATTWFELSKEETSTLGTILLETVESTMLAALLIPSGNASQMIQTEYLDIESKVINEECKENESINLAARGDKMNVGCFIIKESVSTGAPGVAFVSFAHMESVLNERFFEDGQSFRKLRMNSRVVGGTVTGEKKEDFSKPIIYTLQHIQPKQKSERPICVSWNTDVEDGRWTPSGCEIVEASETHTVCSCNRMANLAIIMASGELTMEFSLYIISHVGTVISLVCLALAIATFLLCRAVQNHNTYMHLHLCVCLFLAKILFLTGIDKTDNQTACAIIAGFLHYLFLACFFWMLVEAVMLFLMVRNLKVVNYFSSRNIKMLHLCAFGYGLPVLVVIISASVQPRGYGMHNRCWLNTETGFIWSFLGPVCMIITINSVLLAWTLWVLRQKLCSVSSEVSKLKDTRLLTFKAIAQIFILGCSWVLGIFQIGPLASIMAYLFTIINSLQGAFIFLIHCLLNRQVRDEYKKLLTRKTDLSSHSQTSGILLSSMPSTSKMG
Sequence of UniProt P08121 (P08121 155-1219): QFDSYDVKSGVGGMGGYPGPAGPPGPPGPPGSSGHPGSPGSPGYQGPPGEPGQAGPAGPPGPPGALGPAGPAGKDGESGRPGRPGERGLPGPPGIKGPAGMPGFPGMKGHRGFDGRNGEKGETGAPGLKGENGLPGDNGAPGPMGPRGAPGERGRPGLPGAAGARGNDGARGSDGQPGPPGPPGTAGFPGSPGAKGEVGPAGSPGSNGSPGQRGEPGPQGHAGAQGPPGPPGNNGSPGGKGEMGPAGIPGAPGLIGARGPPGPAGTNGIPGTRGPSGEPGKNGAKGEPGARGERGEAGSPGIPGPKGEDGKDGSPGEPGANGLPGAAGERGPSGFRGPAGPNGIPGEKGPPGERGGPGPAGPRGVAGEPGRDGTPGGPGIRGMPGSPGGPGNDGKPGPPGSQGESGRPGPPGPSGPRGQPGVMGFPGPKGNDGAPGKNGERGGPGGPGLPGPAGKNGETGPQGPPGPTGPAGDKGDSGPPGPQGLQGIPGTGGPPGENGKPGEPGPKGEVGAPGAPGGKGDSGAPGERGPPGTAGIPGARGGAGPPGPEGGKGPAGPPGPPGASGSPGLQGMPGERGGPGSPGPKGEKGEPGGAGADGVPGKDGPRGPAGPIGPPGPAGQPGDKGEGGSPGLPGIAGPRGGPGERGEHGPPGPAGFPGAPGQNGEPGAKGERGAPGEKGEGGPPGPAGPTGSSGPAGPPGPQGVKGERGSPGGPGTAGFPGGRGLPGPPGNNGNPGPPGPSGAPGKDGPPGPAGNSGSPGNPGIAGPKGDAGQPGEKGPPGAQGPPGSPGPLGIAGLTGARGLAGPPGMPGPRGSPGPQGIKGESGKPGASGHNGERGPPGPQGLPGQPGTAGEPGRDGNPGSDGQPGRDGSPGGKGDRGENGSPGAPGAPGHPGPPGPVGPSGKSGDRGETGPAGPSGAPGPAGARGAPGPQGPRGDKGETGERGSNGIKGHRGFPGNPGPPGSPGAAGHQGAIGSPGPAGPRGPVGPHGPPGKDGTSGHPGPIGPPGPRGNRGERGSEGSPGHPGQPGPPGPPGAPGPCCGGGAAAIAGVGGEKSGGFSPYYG
Sequence of UniProt Q7TPZ8 (Q7TPZ8 111-419): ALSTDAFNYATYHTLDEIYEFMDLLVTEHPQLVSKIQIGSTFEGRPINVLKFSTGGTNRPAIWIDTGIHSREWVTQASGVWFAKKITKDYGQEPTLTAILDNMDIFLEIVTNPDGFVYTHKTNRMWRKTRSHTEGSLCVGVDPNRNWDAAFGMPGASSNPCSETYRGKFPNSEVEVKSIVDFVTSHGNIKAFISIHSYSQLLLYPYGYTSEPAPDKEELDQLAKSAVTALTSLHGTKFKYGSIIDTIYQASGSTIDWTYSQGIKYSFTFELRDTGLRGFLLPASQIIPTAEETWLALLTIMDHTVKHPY

SLTNSSF (SEQ ID NO: 27) phage clone (peptide)
mean Manders' correlation coefficient (MCC), fraction of phage overlapping cell marker [1]: 0.11
mean Manders' correlation coefficient (MCC), fraction of phage overlapping cell marker [2]: 0.22
mean Manders' correlation coefficient (MCC), fraction of phage overlapping cell marker (F4/80 (mouse)): 0.8
mean Manders' correlation coefficient (MCC), fraction of phage overlapping cell marker (collagen IIIa (mouse)): 0.33
mean Manders' correlation coefficient (MCC), fraction of phage overlapping cell marker (CD31 (mouse)): 0.13

Source: patent US20240115729A1, “COMPOSITIONS AND METHODS FOR TARGETED ANTIFIBROTIC THERAPY IN CHRONIC PANCREATITIS” (University of Virginia Patent Foundation, priority 2021, published 2024)
